Source: PMC2887783 (2010)

B1: AIP4 PRR/WWI-IV 155-486 (protein)
chain: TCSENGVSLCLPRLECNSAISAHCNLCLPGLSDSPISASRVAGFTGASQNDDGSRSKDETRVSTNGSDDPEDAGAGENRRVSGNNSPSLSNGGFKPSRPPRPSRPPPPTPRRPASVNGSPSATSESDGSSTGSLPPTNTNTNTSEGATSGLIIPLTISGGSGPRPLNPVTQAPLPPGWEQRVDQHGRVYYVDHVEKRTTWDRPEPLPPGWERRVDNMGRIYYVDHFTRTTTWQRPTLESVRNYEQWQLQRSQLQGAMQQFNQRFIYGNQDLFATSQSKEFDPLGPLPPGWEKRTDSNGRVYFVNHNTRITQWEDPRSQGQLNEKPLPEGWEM

Key:
AIP4 HECT domain HECT = AIP4 HECT domain HECT (Homo sapiens, UniProt Q96J02); assay: ELISA
AIP4 PRR/WWI-IV 155-486 [1] = target: B1; assay: ELISA
AIP4 PRR/WWI-IV 155-486 [2] = target: B1; assay: competition ELISA
AIP4 PRR/WWI-IV 155-486 [3] = target: B1; assay: competition ELISA; remark: listed apart in the source

Chain of AIP4 PRR/WWI-IV 155-486 (Q96J02 155-486): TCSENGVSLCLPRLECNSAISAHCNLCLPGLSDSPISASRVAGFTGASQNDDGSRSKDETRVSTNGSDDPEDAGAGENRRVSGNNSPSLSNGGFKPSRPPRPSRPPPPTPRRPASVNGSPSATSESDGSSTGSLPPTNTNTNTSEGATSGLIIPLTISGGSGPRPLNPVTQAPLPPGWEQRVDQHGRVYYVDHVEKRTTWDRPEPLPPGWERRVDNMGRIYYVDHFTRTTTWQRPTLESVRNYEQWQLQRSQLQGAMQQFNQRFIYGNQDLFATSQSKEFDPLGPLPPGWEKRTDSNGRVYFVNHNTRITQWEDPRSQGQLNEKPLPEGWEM
Chain of AIP4 HECT domain HECT (Q96J02 566-903): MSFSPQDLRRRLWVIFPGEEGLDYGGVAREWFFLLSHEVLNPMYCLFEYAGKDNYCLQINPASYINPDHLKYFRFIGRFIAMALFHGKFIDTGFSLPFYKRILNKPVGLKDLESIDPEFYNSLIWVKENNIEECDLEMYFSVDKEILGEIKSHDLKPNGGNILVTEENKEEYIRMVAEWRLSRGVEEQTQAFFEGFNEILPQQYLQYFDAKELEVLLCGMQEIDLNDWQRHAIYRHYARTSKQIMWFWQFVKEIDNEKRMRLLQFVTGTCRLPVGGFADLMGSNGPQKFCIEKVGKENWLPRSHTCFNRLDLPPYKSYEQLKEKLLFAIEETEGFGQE

Kd (AIP4 HECT domain HECT) | Kd (AIP4 PRR/WWI-IV 155-486 [1]) | Ki (AIP4 PRR/WWI-IV 155-486 [2]) | IC50 (AIP4 PRR/WWI-IV 155-486 [3]) | Binder
2000 nM |  |  |  | B1
 | 340 nM | 210 nM | 560 nM | spartin 155-367 (protein) APASLSLPSQSCPAEAPPAYTPQAAEGHYTVSYGTDSGEFSSVGEEFYRNHSQPPPLETLGLDADELILIPNGVQIFFVNPAGEVSAPSYPGYLRIVRFLDNSLDTVLNRPPGFLQVCDWLYPLVPDRSPVLKCTAGAYMFPDTMLQAAGCFVGVVLSSELPEDDRELFEDLLRQMSDLRLQANWNRAEEENEFQIPGRTRPSSDQLKEASGT
